Reference: US20040176301A1 (CYCLACEL, published 2004)
Like-named read-outs stand apart in the source and are kept apart here. Numbered stars: 1 amine (or outer) side, 2 acyl side, 3 side chain; on linkers, the order of the positions; unused ones are H or OH. Square brackets hold non-standard residues; d marks the D form. Dhp = dehydrophenylalanine, Z isomer, O=C(/C(=C/c1ccccc1)N[*:1])[*:2]; Phe(3R-OH) = O=C([C@@H](N[*:1])[C@H](O[*:3])c1ccccc1)[*:2]; Phe(4-F) = N[C@@H](Cc1ccc(F)cc1)C(=O)O; 1Nal = N[C@@H](Cc1cccc2ccccc12)C(=O)O; Cha = N[C@@H](CC1CCCCC1)C(=O)O; Phe(ol) = N[C@H](CO)Cc1ccccc1; dPsa = D-O-acetylphenylserine; Phg = N[C@H](C(=O)O)c1ccccc1; Tle = CC(C)(C)[C@H](N)C(=O)O; Psa = O-acetylphenylserine; Nle = CCCC[C@H](N)C(=O)O; Nva = CCC[C@H](N)C(=O)O; Abu = CC[C@H](N)C(=O)O; dPse = D-phenylserine

B1: H-His-Ala-Lys-Arg-Arg-Leu-Ile-Dhp-OH (peptide)
peptide: H-HAKRRLI[Dhp]-OH
SMILES: CC[C@H](C)[C@H](NC(=O)[C@H](CC(C)C)NC(=O)[C@H](CCCNC(=N)N)NC(=O)[C@H](CCCNC(=N)N)NC(=O)[C@H](CCCCN)NC(=O)[C@H](C)NC(=O)[C@@H](N)Cc1c[nH]cn1)C(=O)N/C(=C\c1ccccc1)C(=O)O
B2: H-Ala-Ala-Lys-Arg-Arg-Leu-Ile-pFPhe-NH2 (peptide)
peptide: H-AAKRRLI[Phe(4-F)]-NH2
SMILES: CC[C@H](C)[C@H](NC(=O)[C@H](CC(C)C)NC(=O)[C@H](CCCNC(=N)N)NC(=O)[C@H](CCCNC(=N)N)NC(=O)[C@H](CCCCN)NC(=O)[C@H](C)NC(=O)[C@H](C)N)C(=O)N[C@@H](Cc1ccc(F)cc1)C(N)=O
B3: H-His-Ala-Lys-Arg-Arg-1Nap-Ile-Phe-NH2 (peptide)
peptide: H-HAKRR[1Nal]IF-NH2
SMILES: CC[C@H](C)[C@H](NC(=O)[C@H](Cc1cccc2ccccc12)NC(=O)[C@H](CCCNC(=N)N)NC(=O)[C@H](CCCNC(=N)N)NC(=O)[C@H](CCCCN)NC(=O)[C@H](C)NC(=O)[C@@H](N)Cc1c[nH]cn1)C(=O)N[C@@H](Cc1ccccc1)C(N)=O
B4: H-His-Bug-Lys-Arg-Arg-Leu-Ile-Phe-NH2 (peptide)
peptide: H-H[Tle]KRRLIF-NH2
SMILES: CC[C@H](C)[C@H](NC(=O)[C@H](CC(C)C)NC(=O)[C@H](CCCNC(=N)N)NC(=O)[C@H](CCCNC(=N)N)NC(=O)[C@H](CCCCN)NC(=O)[C@@H](NC(=O)[C@@H](N)Cc1c[nH]cn1)C(C)(C)C)C(=O)N[C@@H](Cc1ccccc1)C(N)=O
B5: H-His-Nva-Lys-Arg-Arg-Leu-Ile-Phe-NH2 (peptide)
peptide: H-H[Nva]KRRLIF-NH2
SMILES: CCC[C@H](NC(=O)[C@@H](N)Cc1c[nH]cn1)C(=O)N[C@@H](CCCCN)C(=O)N[C@@H](CCCNC(=N)N)C(=O)N[C@@H](CCCNC(=N)N)C(=O)N[C@@H](CC(C)C)C(=O)N[C@H](C(=O)N[C@@H](Cc1ccccc1)C(N)=O)[C@@H](C)CC
B6: H-His-Abu-Lys-Arg-Arg-Leu-Ile-Phe-NH2 (peptide)
peptide: H-H[Abu]KRRLIF-NH2
SMILES: CC[C@H](NC(=O)[C@@H](N)Cc1c[nH]cn1)C(=O)N[C@@H](CCCCN)C(=O)N[C@@H](CCCNC(=N)N)C(=O)N[C@@H](CCCNC(=N)N)C(=O)N[C@@H](CC(C)C)C(=O)N[C@H](C(=O)N[C@@H](Cc1ccccc1)C(N)=O)[C@@H](C)CC
B7: H-His-Ala-Lys-Arg-Arg-Cha-Ile-Phe-NH2 (peptide)
peptide: H-HAKRR[Cha]IF-NH2
SMILES: CC[C@H](C)[C@H](NC(=O)[C@H](CC1CCCCC1)NC(=O)[C@H](CCCNC(=N)N)NC(=O)[C@H](CCCNC(=N)N)NC(=O)[C@H](CCCCN)NC(=O)[C@H](C)NC(=O)[C@@H](N)Cc1c[nH]cn1)C(=O)N[C@@H](Cc1ccccc1)C(N)=O
B8: H-His-Ala-Lys-Arg-Arg-Nle-Ile-Phe-NH2 (peptide)
peptide: H-HAKRR[Nle]IF-NH2
SMILES: CCCC[C@H](NC(=O)[C@H](CCCNC(=N)N)NC(=O)[C@H](CCCNC(=N)N)NC(=O)[C@H](CCCCN)NC(=O)[C@H](C)NC(=O)[C@@H](N)Cc1c[nH]cn1)C(=O)N[C@H](C(=O)N[C@@H](Cc1ccccc1)C(N)=O)[C@@H](C)CC
B9: H-Ala-Ala-Abu-Arg-Arg-Leu-Ile-pFPhe-NH2 (peptide)
peptide: H-AA[Abu]RRLI[Phe(4-F)]-NH2
SMILES: CC[C@H](NC(=O)[C@H](C)NC(=O)[C@H](C)N)C(=O)N[C@@H](CCCNC(=N)N)C(=O)N[C@@H](CCCNC(=N)N)C(=O)N[C@@H](CC(C)C)C(=O)N[C@H](C(=O)N[C@@H](Cc1ccc(F)cc1)C(N)=O)[C@@H](C)CC
B10: H-His-Ala-Lys-Arg-Arg-Nva-Ile-Phe-NH2 (peptide)
peptide: H-HAKRR[Nva]IF-NH2
SMILES: CCC[C@H](NC(=O)[C@H](CCCNC(=N)N)NC(=O)[C@H](CCCNC(=N)N)NC(=O)[C@H](CCCCN)NC(=O)[C@H](C)NC(=O)[C@@H](N)Cc1c[nH]cn1)C(=O)N[C@H](C(=O)N[C@@H](Cc1ccccc1)C(N)=O)[C@@H](C)CC

Experiments:
Assay in all cases: cell-based or functional assay
CDK2/cyclin A [1] = molecular target: T1, CDK2/cyclin A (UniProt P24941 1-298; P20248 1-432)
CDK2/cyclin A [2] = molecular target: T1, CDK2/cyclin A; remark: listed apart in the source
CDK2/cyclin A [3] = molecular target: T1, CDK2/cyclin A; remark: listed apart in the source
CDK2/cyclin A [4] = molecular target: T1, CDK2/cyclin A; remark: listed apart in the source

Binder | Relative activity, Kinase Inhibition (CDK2/cyclin A kinase assay, pRb substrate, [ATP] = 100 µM) (CDK2/cyclin A [1]) | Relative activity, Kinase Inhibition (CDK2/cyclin A kinase assay, pRb substrate, [ATP] = 100 µM) (CDK2/cyclin A [2]) | also measured
H-HAKRRLI[dPse]-OH [H-His-Ala-Lys-Arg-Arg-Leu-Ile-D-Pse-OH] | < 0.1 relative to H-His-Ala-Lys-Arg-Arg-Leu-Ile-Phe-NH2 (=1) |  | 
B1 | 3.3 relative to H-His-Ala-Lys-Arg-Arg-Leu-Ile-Phe-NH2 (=1) |  | 
H-HVKRRLIF-NH2 [H-His-Val-Lys-Arg-Arg-Leu-Ile-Phe-NH2] |  | 2 relative to H-His-Ala-Lys-Arg-Arg-Leu-Ile-Phe-NH2 (=1) | 
H-H[Phg]KRRLIF-NH2 (also: Phg racemic, mixture of diastereomers) [H-His-Phg-Lys-Arg-Arg-Leu-Ile-Phe-NH2] |  | < 0.1 relative to H-His-Ala-Lys-Arg-Arg-Leu-Ile-Phe-NH2 (=1) | 
B2 |  |  | Relative activity, Kinase Inhibition (CDK2/cyclin A kinase assay, pRb substrate, [ATP] = 100 µM) (CDK2/cyclin A [3]): 80 relative to H-His-Ala-Lys-Arg-Arg-Leu-Ile-Phe-NH2 (=1)
H-HSKRRLI[dPsa]-OH [H-His-Ser-Lys-Arg-Arg-Leu-Ile-D-Psa-OH] | < 0.1 relative to H-His-Ala-Lys-Arg-Arg-Leu-Ile-Phe-NH2 (=1) |  | 
B3 |  |  | Relative activity, Kinase Inhibition (CDK2/cyclin A kinase assay, pRb substrate, [ATP] = 100 µM) (CDK2/cyclin A [4]): < 0.1 relative to H-His-Ala-Lys-Arg-Arg-Leu-Ile-Phe-NH2 (=1)
H-HFKRRLIF-NH2 [H-His-Phe-Lys-Arg-Arg-Leu-Ile-Phe-NH2] |  | 0.5 relative to H-His-Ala-Lys-Arg-Arg-Leu-Ile-Phe-NH2 (=1) | 
H-HAKRRIIF-NH2 [H-His-Ala-Lys-Arg-Arg-Ile-Ile-Phe-NH2] |  |  | Relative activity, Kinase Inhibition (CDK2/cyclin A kinase assay, pRb substrate, [ATP] = 100 µM) (CDK2/cyclin A [4]): 1.5 relative to H-His-Ala-Lys-Arg-Arg-Leu-Ile-Phe-NH2 (=1)
B4 |  | 0.2 relative to H-His-Ala-Lys-Arg-Arg-Leu-Ile-Phe-NH2 (=1) | 
B5 |  | < 0.1 relative to H-His-Ala-Lys-Arg-Arg-Leu-Ile-Phe-NH2 (=1) | 
H-HAKRRLI[Phe(ol)] [H-His-Ala-Lys-Arg-Arg-Leu-Ile-Pheol] | 0.6 relative to H-His-Ala-Lys-Arg-Arg-Leu-Ile-Phe-NH2 (=1) |  | 
B6 |  | 5 relative to H-His-Ala-Lys-Arg-Arg-Leu-Ile-Phe-NH2 (=1) | 
H-HIKRRLIF-NH2 [H-His-Ile-Lys-Arg-Arg-Leu-Ile-Phe-NH2] |  | 0.5 relative to H-His-Ala-Lys-Arg-Arg-Leu-Ile-Phe-NH2 (=1) | 
H-HGKRRLIF-NH2 [H-His-Gly-Lys-Arg-Arg-Leu-Ile-Phe-NH2] |  | 0.1 relative to H-His-Ala-Lys-Arg-Arg-Leu-Ile-Phe-NH2 (=1) | 
H-HAKRRLI[dPsa]-OH [H-His-Ala-Lys-Arg-Arg-Leu-Ile-D-Psa-OH] | < 0.1 relative to H-His-Ala-Lys-Arg-Arg-Leu-Ile-Phe-NH2 (=1) |  | 
H-HAKRRVIF-NH2 [H-His-Ala-Lys-Arg-Arg-Val-Ile-Phe-NH2] |  |  | Relative activity, Kinase Inhibition (CDK2/cyclin A kinase assay, pRb substrate, [ATP] = 100 µM) (CDK2/cyclin A [4]): < 0.1 relative to H-His-Ala-Lys-Arg-Arg-Leu-Ile-Phe-NH2 (=1)
H-HAKRRFIF-NH2 [H-His-Ala-Lys-Arg-Arg-Phe-Ile-Phe-NH2] |  |  | Relative activity, Kinase Inhibition (CDK2/cyclin A kinase assay, pRb substrate, [ATP] = 100 µM) (CDK2/cyclin A [4]): < 0.1 relative to H-His-Ala-Lys-Arg-Arg-Leu-Ile-Phe-NH2 (=1)
H-HSKRRLI[Psa]-OH [H-His-Ser-Lys-Arg-Arg-Leu-Ile-L-Psa-OH] | < 0.1 relative to H-His-Ala-Lys-Arg-Arg-Leu-Ile-Phe-NH2 (=1) |  | 
B7 |  |  | Relative activity, Kinase Inhibition (CDK2/cyclin A kinase assay, pRb substrate, [ATP] = 100 µM) (CDK2/cyclin A [4]): < 0.1 relative to H-His-Ala-Lys-Arg-Arg-Leu-Ile-Phe-NH2 (=1)
B8 |  |  | Relative activity, Kinase Inhibition (CDK2/cyclin A kinase assay, pRb substrate, [ATP] = 100 µM) (CDK2/cyclin A [4]): < 0.1 relative to H-His-Ala-Lys-Arg-Arg-Leu-Ile-Phe-NH2 (=1)
H-HAKRRLI[Psa]-OH [H-His-Ala-Lys-Arg-Arg-Leu-Ile-[L-Psa]-OH] | 22 relative to H-His-Ala-Lys-Arg-Arg-Leu-Ile-Phe-NH2 (=1) |  | 
B9 |  |  | Relative activity, Kinase Inhibition (CDK2/cyclin A kinase assay, pRb substrate, [ATP] = 100 µM) (CDK2/cyclin A [3]): 60 relative to H-His-Ala-Lys-Arg-Arg-Leu-Ile-Phe-NH2 (=1)
B10 |  |  | Relative activity, Kinase Inhibition (CDK2/cyclin A kinase assay, pRb substrate, [ATP] = 100 µM) (CDK2/cyclin A [4]): < 0.1 relative to H-His-Ala-Lys-Arg-Arg-Leu-Ile-Phe-NH2 (=1)
H-HSKRRLI[dPse]-OH [H-His-Ser-Lys-Arg-Arg-Leu-Ile-D-Pse-OH] | < 0.1 relative to H-His-Ala-Lys-Arg-Arg-Leu-Ile-Phe-NH2 (=1) |  | 
H-HAKRRLI[Phe(3R-OH)]-OH [H-His-Ala-Lys-Arg-Arg-Leu-Ile-L-Pse-OH] | < 0.1 relative to H-His-Ala-Lys-Arg-Arg-Leu-Ile-Phe-NH2 (=1) |  | 
